Source: patent US12139520B2 (priority 2020, dated 2024)
Numbered stars: 1 amine (or outer) side, 2 acyl side, 3 side chain; on linkers, the order of the positions; unused ones are H or OH. Bridge positions count the residues as written; N and C are the ends. Square brackets hold non-standard residues; d marks the D form. Side chains are listed from the residue outwards. Ends that are not written are not given here. * marks the point of attachment. C20 diacid = O=C(O)CCCCCCCCCCCCCCCCCCC(=O)*; γGlu = O=C(O)[C@H](CCC(=O)[*:2])N[*:1]; Hyp = O=C(O)[C@@H]1C[C@@H](O)CN1; Trx = NC[C@H]1CC[C@H](C(=O)O)CC1; AEEA = NCCOCCOCC(=O)O

B1: SEQ ID NO: 221 (peptide)
peptide: {C20 diacid-Trx-γGlu-AEEA-AEEA}-K([AEEA-AEEA-γGlu-Trx-C20 diacid])CNTATCTVQRLAEQIYQFTDKDKDNVAPPTNVGSNG[Hyp]
modifications: disulfide 2-7 (inferred); ends not checked
B2: SEQ ID NO: 211 (peptide)
peptide: GCRTGTCTVQRLAHQIYQFTDKFKDNVAPRSKISPQF[Hyp]-NH2
modifications: disulfide 2-7 (inferred); ends not checked
B3: SEQ ID NO: 201 (peptide)
peptide: GCRTGTCTVQRLAHQIYQFTDKFKDNVAPRSKISPQH[Hyp]-NH2
modifications: disulfide 2-7 (inferred); ends not checked
B4: SEQ ID NO: 220 (peptide)
peptide: GCRTGTCTVQRLAHQIYQFTNKDKDNVAPRSKISPQW[Hyp]-NH2
modifications: disulfide 2-7 (inferred); ends not checked
B5: SEQ ID NO: 214 (peptide)
peptide: GCRTGTCTVQRLAHQIYQFTDKDKDNVAPRTNISPQG[Hyp]-NH2
modifications: disulfide 2-7 (inferred); ends not checked
B6: SEQ ID NO: 22 (peptide)
peptide: {C20 diacid-γGlu}-KCNTATCTVQRLAHQITQFTDKDKDNVAPPTNVGSNG[Hyp]-NH2
modifications: disulfide 2-7 (inferred); ends not checked
B7: SEQ ID NO: 216 (peptide)
peptide: GCRTGTCTVQRLAHQIYQFTDKDKDNVAPRTKVSPQG[Hyp]-NH2
modifications: disulfide 2-7 (inferred); ends not checked
B8: SEQ ID NO: 23 (peptide)
peptide: KCNTATCTVQRLAHQIYQFADKDKDNVAPPTNVGSNG[Hyp]-NH2
modifications: disulfide 2-7 (inferred); ends not checked
B9: SEQ ID NO: 206 (peptide)
peptide: GCRTGTCTVQRLAHQIYQFTDKFKDNVAPRSKISPQK[Hyp]-NH2
modifications: disulfide 2-7 (inferred); ends not checked
B10: SEQ ID NO: 219 (peptide)
peptide: GCRTGTCTVQRLAHQIYQFTNKDKDNVAPRSKISPQH[Hyp]-NH2
modifications: disulfide 2-7 (inferred); ends not checked
B11: SEQ ID NO: 215 (peptide)
peptide: GCRTGTCTVQRLAHQIYQFTDKFKDNVAPRSKISPQTM
B12: SEQ ID NO: 226 (peptide)
peptide: GCRTGTCTVQRLAHQIYQFTNKDKDNVAPRSKISPQTW
B13: SEQ ID NO: 218 (peptide)
peptide: GCRTGTCTVQRLAHQIYQFTDKFKDNVAPRSKISPQA[Hyp]-NH2
modifications: disulfide 2-7 (inferred); ends not checked
B14: SEQ ID NO: 205 (peptide)
peptide: KCRFGTCTVQRLAHQIYQFTDKDKDNVAPRSKISPQT[Hyp]-NH2
modifications: disulfide 2-7 (inferred); ends not checked
B15: SEQ ID NO: 21 (peptide)
peptide: {C20 diacid-γGlu}-KCNTATCTVQRLANQIYQFTDKDKDNVAPPTNVGSNG[Hyp]-NH2
modifications: disulfide 2-7 (inferred); ends not checked
B16: SEQ ID NO: 203 (peptide)
peptide: GCRTGTCTVQRLAHQIYQFTDKFKDNVAPRSKISPQP[Hyp]
modifications: ends and bridges not checked
B17: SEQ ID NO: 202 (peptide)
peptide: GCRWGTCTVQRLAHQIYQFTDKDKDNVAPSSKISPQT[Hyp]-NH2
modifications: disulfide 2-7 (inferred); ends not checked
B18: SEQ ID NO: 228 (peptide)
peptide: GCRTGTCTVQRLAHQIHQFTDKDKDNVAPRSKISPQT[Hyp]-NH2
modifications: disulfide 2-7 (inferred); ends not checked
B19: SEQ ID NO: 208 (peptide)
peptide: {C20 diacid-γGlu}-GCRFGTCTVQRLAHFLYQFTDKDKDNVAPRTNVGSNTY-NH2
modifications: disulfide 2-7 (inferred); ends not checked
B20: SEQ ID NO: 222 (peptide)
peptide: GCRMGTCTVQRLAHQIYQFTDKDKDNVAPSSKISPQT[Hyp]-NH2
modifications: disulfide 2-7 (inferred); ends not checked
B21: SEQ ID NO: 224 (peptide)
peptide: GCRTGTCTVQRLAHQIYQFTDKDKDNVAPRSNVSPQG[Hyp]-NH2
modifications: disulfide 2-7 (inferred); ends not checked
B22: SEQ ID NO: 223 (peptide)
peptide: {C20 diacid-γGlu}-GCRFGTCTVQRLAHFLYQFTDKDKDNVAPRTKVGSNGY-NH2
modifications: disulfide 2-7 (inferred); ends not checked
B23: SEQ ID NO: 207 (peptide)
peptide: KCNTATCATQRLANFLVHSSNNFGAILPSTKIGSNGY
B24: SEQ ID NO: 200 (peptide)
peptide: {C20 diacid-γGlu}-GCRFGTCTVQRLAHFLYQFTDKDKDNVAPRTNVGPQGY-NH2
modifications: disulfide 2-7 (inferred); ends not checked
B25: SEQ ID NO: 213 (peptide)
peptide: GCRTGTCTVQRLAHQIWQFTDKFKDNVAPRSKISPQT[Hyp]-NH2
modifications: disulfide 2-7 (inferred); ends not checked
B26: SEQ ID NO: 225 (peptide)
peptide: {C20 diacid-γGlu}-KCNTLTCTVQRLAHQIYQFTDKDKDNVAPPTNVGSNG[Hyp]-NH2
modifications: disulfide 2-7 (inferred); ends not checked
B27: SEQ ID NO: 212 (peptide)
peptide: GCRFGTCTVQRLAHQIYQFTDKFKDNVAPRSKISPQT[Hyp]-NH2
modifications: disulfide 2-7 (inferred); ends not checked
B28: SEQ ID NO: 217 (peptide)
peptide: GCRFGTCTVQRLAHQLYQFTDKDKDNVAPRSKISPQT[Hyp]-NH2
modifications: disulfide 2-7 (inferred); ends not checked
B29: SEQ ID NO: 227 (peptide)
peptide: GCRTGTCTVQRLAHQIHQFTNKDKDNVAPRSKISPQT[Hyp]-NH2
modifications: disulfide 2-7 (inferred); ends not checked
B30: SEQ ID NO: 204 (peptide)
peptide: GCRTGTCTVQRLAHQIYQFTDKDKDNVAPRSKVSPNG[Hyp]-NH2
modifications: disulfide 2-7 (inferred); ends not checked
B31: SEQ ID NO: 199 (peptide)
peptide: GCRTGTCTVQRLAHQIYQFTDKDKDNVAPRTNISPQGY
B32: SEQ ID NO: 209 (peptide)
peptide: GCRTGTCTVQRLAHQIYQFTDKDKDNVAPRTKVSPQGY
B33: SEQ ID NO: 210 (peptide)
peptide: KCNTATCTVQRLAHQAYQFTDKDKDNVAPPTNVGSNG[Hyp]-NH2
modifications: disulfide 2-7 (inferred); ends not checked

Key:
hAM1R = hAM1R (human, UniProt Q16602); assay: cell-based or functional assay
hAMY3R = target: T1, hAMY3R (human, UniProt P30988); assay: cell-based or functional assay
T1 sequence 1: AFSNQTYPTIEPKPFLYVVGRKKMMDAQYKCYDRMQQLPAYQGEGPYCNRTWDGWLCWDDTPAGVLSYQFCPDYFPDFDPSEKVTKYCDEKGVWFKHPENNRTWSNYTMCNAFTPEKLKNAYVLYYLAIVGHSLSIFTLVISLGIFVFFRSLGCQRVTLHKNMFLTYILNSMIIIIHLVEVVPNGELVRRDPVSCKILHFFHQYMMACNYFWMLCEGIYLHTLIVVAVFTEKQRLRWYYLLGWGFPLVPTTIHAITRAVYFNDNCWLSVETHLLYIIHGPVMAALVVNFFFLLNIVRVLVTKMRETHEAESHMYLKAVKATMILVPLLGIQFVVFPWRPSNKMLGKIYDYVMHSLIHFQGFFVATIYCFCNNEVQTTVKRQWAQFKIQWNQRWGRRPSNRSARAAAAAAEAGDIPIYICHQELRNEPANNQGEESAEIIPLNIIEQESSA
T1 sequence 2: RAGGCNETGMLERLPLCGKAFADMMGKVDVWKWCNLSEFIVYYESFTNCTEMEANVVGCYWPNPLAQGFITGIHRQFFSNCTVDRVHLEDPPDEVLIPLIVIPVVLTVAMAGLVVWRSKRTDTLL

| Binder | hAM1R EC50 (cAMP) (hAM1R) | hAMY3R EC50 (cAMP) (hAMY3R) |
| --- | --- | --- |
| B1 | > 5000 nM | 0.184 nM |
| B2 | 2760 nM | 0.151 nM |
| B3 | 4880 nM | 0.126 nM |
| B4 | > 5000 nM | 0.182 nM |
| B5 | 2980 nM | 0.157 nM |
| B6 | > 5000 nM | 0.008 nM |
| B7 | 2980 nM | 0.164 nM |
| B8 | > 5000 nM | 0.008 nM |
| B9 | > 5000 nM | 0.13 nM |
| B10 | 4250 nM | 0.171 nM |
| B11 | > 5000 nM | 0.161 nM |
| B12 | > 5000 nM | 0.186 nM |
| B13 | > 5000 nM | 0.169 nM |
| B14 | 3230 nM | 0.13 nM |
| B15 | > 5000 nM | 0.008 nM |
| B16 | > 5000 nM | 0.127 nM |
| B17 | > 5000 nM | 0.126 nM |

| Binder | hAM1R EC50 (cAMP) (hAM1R) | hAMY3R EC50 (cAMP) (hAMY3R) |
| --- | --- | --- |
| B18 | > 5000 nM | 0.205 nM |
| B19 | 242 nM | 0.133 nM |
| B20 | > 5000 nM | 0.184 nM |
| B21 | 2980 nM | 0.186 nM |
| B22 | 47.7 nM | 0.186 nM |
| B23 | > 5000 nM | 0.131 nM |
| B24 | 38.2 nM | 0.126 nM |
| B25 | > 5000 nM | 0.153 nM |
| B26 | > 5000 nM | 0.186 nM |
| B27 | > 5000 nM | 0.153 nM |
| B28 | > 5000 nM | 0.167 nM |
| B29 | 4570 nM | 0.187 nM |
| B30 | 2980 nM | 0.129 nM |
| B31 | 2980 nM | 0.124 nM |
| B32 | 1020 nM | 0.136 nM |
| B33 | > 5000 nM | 0.137 nM |
